This is an account of results in the nanobody polyreactivity screen of Harvey et al. (2022).

This data set is described as follows: yeast display, Sf9 membrane polyspecificity reagent, FACS + sequencing; frameworks hold sequencing errors. In short, it runs like this: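 Sorting gates, low and high (top ~1%), were placed on anti-HA fluorescence to track expression and on streptavidin fluorescence to track reagent binding. A clone's polyreactivity label is taken from the gate it came out of. The reagent was 10% biotinylated, detergent-solubilized Sf9 membrane, applied for 1 hour at 4 °C to galactose-induced yeast display cells.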
For “QVHLVESGGGLVQAGGSLRLSCAASGRTIVGYDMGWYRQAPGKEMELVAAISSRGGSTYYADSVKGRFTISRDNAKNTVYLQRNSLKPEDTAVYYCAALWYVGYGPVDYWGQGTQVTVSS”, the “polyreactivity (PSR sort gate)” value was “high polyreactivity”.

Turning to “QVQLVESGGGLVQAGGTLRLSCAASGRILYLNAMGWYRQAPGKEREFVAAISKSGGSTYYADSVKGRFTISRDNAMNSVYLQMNSLKPEDTAVYYCATRFRSAEYDYWGQGTQVTVSS”, the “polyreactivity (PSR sort gate)” value was “low polyreactivity”.

As to “QVQLVESCGGLVQAGGSLRLSCAASGFTFRNYVMGWYRQAPGKERELVAAISSTGGSTYYADSVKGRFTISRDNAKNTVYLQMNSLKPEDTAVYYCAARYVVQWPRYGFDYWGQGTQVTVSS”, the “polyreactivity (PSR sort gate)” value is “high polyreactivity”.

Regarding “QVQLVESGGGLVQAGGSLRLSCAPSGRIIGTNAMRWYIQAPRKERELVAAITWSGGSTYYADSVKGRFTISRDNAKNTVFLQMISLKPEDTAVYYCAKDYGYGPRFYYWGQGTQLTVSS”, the “polyreactivity (PSR sort gate)” value is listed as “high polyreactivity”.

Turning to “QVQLVESGGGLVQAGGSLRLICAASGISFDGNPMGWYRQAPGKERELVASITSDSSTNYADSVKGRFTISRDNAKNTVYLQMKSLKPEDTAVYYCAADHWIAPRRDYWGQGTQVTVSS”, the “polyreactivity (PSR sort gate)” value is listed as “low polyreactivity”.

Regarding “QVQLVESGGGLVQAGGSLRLSCAASGSTFTRNAMGWYRQAPGKERELVATISSGGSTNYADSVKGRFTISRDNAKNTVYLQMNSLKPEDTAVYYCAKRSLYRYYYWGQGTQVTVSS”, the “polyreactivity (PSR sort gate)” value is listed as “high polyreactivity”.

For the sequence “QVQLVESGGGLVQAGGSLRLSCAASGSTFYPTYAMGWYRQAPGKERELVATITGSGGSTYYADSVKGRFTSSRDNAKNTVYLQMNSLKPEDTAVYYCAADRWYSRYTRYGYWGQGTQVTVSS”, the “polyreactivity (PSR sort gate)” value was “low polyreactivity”.

As for “QVQLVVSGGGLVQPGGSLRLSCAASGRIFGLYAMGWYRQAPGKEREVVAAYADSVKGRFTISRDNAKNTVYLQMNSLKPEDTAVYYCAKGPLYAGYSIDLRDFNYWGQGTQVTVSS”, the “polyreactivity (PSR sort gate)” value is reported as “low polyreactivity”.

As for “QVQLVESGGGLVQAGGSLRLSCAASGRTFGFYGMGWYRQAPGKEREFVAAITRRGGSTYYADSVKGRFTISRDNAKNTVYLQMNSLNPEDTAVYYCNAARGAYYRWWGFGSDYWGQGTQVTVSS”, the “polyreactivity (PSR sort gate)” value is given as “high polyreactivity”.

On to “QVQLVESGGGLVQAGGSLRLSCAASGSTFTPYAMGWHRQAPGKERELVAAITIRGGSTYYADSVKGRFTISRDNAKNTVYLQMYSLKPEDTAVYYCAREYIFSVYDYSTSYYYWGQGTQVTVSS”, for which the “polyreactivity (PSR sort gate)” value is “low polyreactivity”.

As for “QVQLVESGGGLVQAGGILRLSCAASGIIFRKNAMGWYRQAPGKERELVAAISSTGASTNYADSVKGRFTISRDNAKNTVYLQMNSLKPEDTAVYYCAASRTRYWKYDYWGPGTQVTVSS”, the “polyreactivity (PSR sort gate)” value is listed as “high polyreactivity”.

With “QVQLVESGGGLVQAGGSLRLSCAASGRIFKRYTMGWYRQAPGQERELVAGITFSGGSTYYADSVKGRFTISRDNAKNTVYLQMNSLKPEDTAVYYCNARVPPQGWGPWKAFDYWGQGTQVTVSS”, the “polyreactivity (PSR sort gate)” value was “low polyreactivity”.

Turning to “QVQLVESGGGLVQAGGSLSLSCAASGFIFRGYAMGWNRQAPGKEREFVAAISRRGGSTYYADSVKGRFTISRDNAKNTVYLQMNSLKPEDTAVYYCAARYSPVWHKYYYWGQGTEVTVSS”, the “polyreactivity (PSR sort gate)” value is given as “high polyreactivity”.

For “QVQLVESGGGLVQAGGSLRLSCAASGRIFGRYAMGWYRQAPGKERELVAAITSSGRTYYADSVKGRFTISRDNAKNTVYLQMNSLKPEDTAVYYCNAVARYTKYNYWGQGTQVTVSS”, the “polyreactivity (PSR sort gate)” value is “high polyreactivity”.

Regarding “QVQLVESGGGLVQAGGSLRLSCPASGSIFNKNAMGWYRQAPGKERELVAAISSGGSTYYADSVKGRFTISRDNAKNTVYLQMNSLKPEDTAVYYCARGASFYQKFYYWGQGTQVTVSS”, the “polyreactivity (PSR sort gate)” value is “high polyreactivity”.

Regarding “QVQLVESGGGLVQAGGSLRLSCAASGRIYDYNTMGWYRKAPGKERELVAAITGGTGSTYYADSVKGRFTISRDNAKNTVYLQMNSLKPEDTAVYYCAAGFHKRVTPEILYDYWGQGTQVTVSS”, the “polyreactivity (PSR sort gate)” value is given as “low polyreactivity”.

“QVQLVESGGGLVQAGGSLRLSCAASGFTFPLYAMGWYRQAPGKERELVASISSRGGSTYYADSVKGRFTISRDNAKNTVYLQMNSLKPEDTAVYYCARSTSRYYYWGQGTQVTVSS”: the “polyreactivity (PSR sort gate)” value is reported as “high polyreactivity”.

Turning to “QVQLVESGGGLVQAGGRLSLSCAASGITFLGYAMGWYREAPGKDSELVAAISSGGSTYYADSVKGRFTISRDNAKNTVYLQMNILKPEDTAVYYCAKAVYYRDPYGGDYWGQGTQVTVSS”, the “polyreactivity (PSR sort gate)” value is “low polyreactivity”.

Consider “QVQLVESGGGLVQAGGSLRLSCAASVLIFDGYAMGWYRQAPGKEREFVADIDFGGGSTYYADSVKGRFTISRDNAKNTVYLQMNSLKPEDTAVYYCNAVWDDYGFYSPYVVVEYDYWGQGTQVTVSS”, for which the “polyreactivity (PSR sort gate)” value is on record as “high polyreactivity”.

Regarding “QVQLVESRGGLVQAGGSLRLSCAASGSIFYSNFMGWYRPAPGKERELVARITDAGSTNYADSVKGRFTISRDNAKNTVYLQMNSQKPEDTAVYYCNARLVIYTYDYWGQGTQVTVSS”, the “polyreactivity (PSR sort gate)” value is reported as “low polyreactivity”.

With “QVQLVESGGGLVQAGGRLRLSCAASGRIFVRYVMGWYRQAPGQERALVAAISSSGGSTYYADSVKGRYTISRDTAKKTVYLQMNSLKPEDTAVYYCATDLIDKYFLPYDYWGQGTQVTVSS”, the “polyreactivity (PSR sort gate)” value is “low polyreactivity”.

For the sequence “HVQLVESGGGLVQAGGSLRLSCAASGITFPIYAMGWYRQAPGKEREFVAAINQRGGSTYYADSVKGRFTISRDNAKNTVYLQMNSLKPEDTAVDYCAAENGFNSLSRSGLHYWGQGTQVTVSS”, the “polyreactivity (PSR sort gate)” value is listed as “low polyreactivity”.

“QVQLVESGGGLVQAGGSLRLSCAASGSIMNNYAMGWYRQAPGKERELVAAISSSGGTNYADSVKGRFTISRDNAKNTVYLLMNSLKPEDTAVYYCNADVMDGGYDYWGQGTQVTVSS”: the “polyreactivity (PSR sort gate)” value is given as “low polyreactivity”.

Regarding “QVQLVESGGGLVQAGGSLRLSCAASGSIFDSYAMGWSRQAPGKERELVAAISSGGSTNYADSVKGRFTISRDNEKNTVILQMYSLKTEDTAVYFCAADGSLDAYNYWGQGTQVSVSS”, the “polyreactivity (PSR sort gate)” value was “low polyreactivity”.

As to “QVQLEDSGGGLVQAGGSLRLSCAASGFTFYSYAMGWYRQATGKERELVAAISWSGTRTYYADSVKGRFTISRDNAKNTVYLQMNSLKPEDTAVYYCAARGYRYGYGYWGQGTQVTVSS”, the “polyreactivity (PSR sort gate)” value is reported as “high polyreactivity”.

Take “QVQLVESGGGLVQAGGSLRLSCAASGSTFAPNAMGWYRQAPGKEREFVASITWRGGSTYYADSVKGRFTISRDNAKNTVYLQMNSLKPEDTAVYYCANLKRGFYRLFGFRYDYWGQGTQVTVSS”: the “polyreactivity (PSR sort gate)” value is “low polyreactivity”.

Take “QVQLVESGGGLVQAGGSLRLSCAASGYTFWDYTMGWYRQAPGKEREFVAAINWSGGSTYYADSVKGRFTISRDNAKNTVYLQMNSLKPEDTAVYYCAARRGGRRGYDYWGQGTQVTVSS”: the “polyreactivity (PSR sort gate)” value is “high polyreactivity”.

Regarding “QVQLVESGGGLVQAGGSLRLSCAASGRTIDYNGMGWYRQAPGKEREMVAVISSSGGSTFYADSVKGRFTISRDNAKNTVYLQMNSLKPEDTAVYYSAADFIVAYTLHGSYDYWGQGTQVTVSS”, the “polyreactivity (PSR sort gate)” value was “low polyreactivity”.

As to “QVQLVESGGGLVQAGGSLRLSCAASGSTFPRNDMGWYRQAPGNERELVAAISRGGSTNYADSVKGRFTISRDNANNTVYLQMNSMKPEDTAVYYCAAQIFESAYGMDYWGQGTQVTVSS”, the “polyreactivity (PSR sort gate)” value was “low polyreactivity”.

Consider “QVQLVESGGGLVQAGGSLRLSCAATGGTFNVYAMGWYRQAPGKESELVAAIRWSGGSTYYADSVKGRFTISRDNAKNTVYLQMNSLKPEDTAVYYCAARFYGRSQTYGSWGLGTQVTVSS”, for which the “polyreactivity (PSR sort gate)” value is “high polyreactivity”.

In the case of “QVQHVESVGGLVQAGGSLRLSCAASGRTFTSYDMGWYRQAPLTEREVVAAITGSYTYYADSVKGRFTISRDNAKNTVYLQFNSLKPEDTAVYYCAADEDDVVSGFLRYFYVSYYYWGQGTQVTVSS”, the “polyreactivity (PSR sort gate)” value is reported as “low polyreactivity”.

For the sequence “QVQLVESGGGLVQAGGSLRLSCAASGFTFYANAKGWYRQAPGKERELVAAIDQSGTSTNYADSVKGRFTISRDNAKNTVYLQMNSLKPDDTAVYYCAADSSFYYYPLILFWGDYWGQGTQVTVSS”, the “polyreactivity (PSR sort gate)” value was “low polyreactivity”.

Regarding “QVQLVESGGGLVQAGGSLRLSCAASGFTFTRNAMGWYRQAPGKERELVAAITSSGGRTYYADSVKGRFTISRDNAKNTVYLQMNSLKPEDTAVYYCAVYPRYSLPARDYDYWGQGTQVTVSS”, the “polyreactivity (PSR sort gate)” value is “high polyreactivity”.

Take “QVQLVESGGGLVQAGGSLRLSCAASGSIFTRNTMGWYRQAPGKERELVAAISTSGGDTYYADSVKGRFTISRDNAKNTVYLQMNSLKPEDTAVYFCAVVLVGVYFGYDYWGQGTQVTVSS”: the “polyreactivity (PSR sort gate)” value is on record as “high polyreactivity”.

In the case of “QVQLVESGGGLVQAGGSLRLSCAASGYTFRANGMGWYRQAPGKERELVAAITQSVDNTYYADSVKGRFTISRDNAKNTVYLQVNSLKPEDTAVYYCATEYGQTGYPQMGYWGQGTQVTVSS”, the “polyreactivity (PSR sort gate)” value was “low polyreactivity”.

Consider “QVQLVESGGGLVQAGGSLRLSCAASGSIFATYAMGWYRQAPGKERELVAAITSSDGSTNYADSVKGRFTISRDNAKNTVYLQMNSLKPEDTAVYYCATDAPDRTDSDSGFDAGYDYWGQGTQVTLSS”, for which the “polyreactivity (PSR sort gate)” value is given as “low polyreactivity”.

In the case of “QVQLVESGGGLVQAGGSLRLSCAASGSIFWVNAMGWYRQAPGKERELVAAITWSAGSTYYADSVKGRFTISRDNAKNTVYLQMNSLKPEDTAVYYCAAGGAWYYWTLDYWGQGTQVTVSS”, the “polyreactivity (PSR sort gate)” value is on record as “low polyreactivity”.

Take “QVQLVESGGGLVQAGGSLRLSCAASGRTIRHNAMGWYRQAPGKERELVAAISRSGGSTYYADSVKGRFTISRDNAKNTVYLQMNSLKPEDTAVYYCAAGYHIIYTPEYYYWGQGTQVTVSS”: the “polyreactivity (PSR sort gate)” value is “high polyreactivity”.

Take “QVQLVESGGGLVQAGGSLRLSCAASGIILGSYVMGWYRQAPGKERELVAVISFSGGSTYSADSVKGRFTISRDNAKNTVYLQMNSLKPEDTAVYYCAADNFRSYTIRSPYNYWGQGTQVTVSS”: the “polyreactivity (PSR sort gate)” value was “low polyreactivity”.

As for “QVHLVESGGGLVQAGGSLRLSCAASGITFLKYAMGWYRQAPGKERELVARITSGGRTYYADSVKGRFTISRDNAKNTVYLLMNSLKPEDTAVYYCNAVKSYASLYAGFYYWGQGTHVTVSS”, the “polyreactivity (PSR sort gate)” value is “high polyreactivity”.

Regarding “QVQLVESGGGLVQAGGSLRLSCAASGSTLNDYAMGWYRQSPGKERELVAGINRGGSTNYADSVKGRFTISRDNAKNTVYLQMKSLKPVDTAVYYCAVRAYRWRSTLGLYYWGQGTQVTVSS”, the “polyreactivity (PSR sort gate)” value is reported as “high polyreactivity”.
